From US11549123B2, “Plant EPSP synthases and methods of use” (PIONEER HI-BRED INTERNATIONAL, INC., priority 2015, dated 2023)
Where a chain is given by its changes, count along the chain named. Numbers in names are those of the source.

Columns and labels:
C=C(OP(=O)(O)O)C(=O)O = experiment: purified protein, by the assay type; conditions: other: substrate saturation; Bacterial EPSPS / CP4
Text: There are several practical considerations for accurately estimating (kcat/KM)*KI with the rapid method. […] If inhibition is too little, v0-vi will be small, and the error in the multiplier vi×v0/(v0-vi) will be large. […] High substrate concentration obscures sensitivity to the inhibitor and reduces stringency for capturing improvements in KM.

[1] = substrate: C=C(OP(=O)(O)O)C(=O)O; experiment: EPSPS substrate saturation kinetics, maize variant 103V 107G; assay type: biochemical, Zea mays; conditions: other: PEP varied; pH 7.0
Procedure: (§1) EPSPS activity was determined by quantifying the phosphate generated from the EPSPS reaction. Release of inorganic phosphate was coupled to reaction with 2-amino-6-mercapto-7-methylpurine ribonucleoside, catalyzed by purine-nucleoside phosphorylase (M R Webb, Proc. Natl. Acad. Sci. 89:4884-4887, 1992). The absorbance change that occurs was monitored at 360 nm, where the extinction is 11,200 M^−1 cm^−1, with a Spectramax plate reader (Molecular Devices). To determine kinetic parameters, the varied substrate was present at seven concentrations (the eighth being the blank, containing no substrate) ranging from 4 to 400 uM and the unvaried substrate present at saturation. […] Reactions were monitored with a Spectramax plate reader. […] KI was then calculated from the following form of the Michaelis-Menten equation for competitive inhibition: KI=KM[I]/(KM app−KM) KM approximates the dissociation constant of the enzyme-substrate complex while kcat is the rate of conversion of substrate to product when the substrate concentration is saturating. kcat/KM is a widely accepted parameter for catalytic efficiency when substrate concentration is low (˜KM). […] The parameter kcat/KM×KI is used to quantify both catalytic efficiency and insensitivity and thus the overall fitness of the enzyme. […]

[2] = substrate: C=C(OP(=O)(O)O)C(=O)O; experiment: EPSPS substrate saturation kinetics, maize variant 103G 107W (EPSPS-TGPW); assay type: biochemical; conditions: other: PEP varied; pH 7.0
Procedure: as §1

[3] = substrate: C=C(OP(=O)(O)O)C(=O)O; experiment: EPSPS substrate saturation kinetics, maize variant 103L 107T; assay type: biochemical, Zea mays; conditions: other: PEP varied; pH 7.0
Procedure: as §1

[4] = substrate: C=C(OP(=O)(O)O)C(=O)O; experiment: EPSPS substrate saturation kinetics, maize variant 103L 107A; assay type: biochemical, Zea mays; conditions: other: PEP varied; pH 7.0
Procedure: as §1

[5] = substrate: C=C(OP(=O)(O)O)C(=O)O; experiment: EPSPS substrate saturation kinetics, maize variant 103S 107N; assay type: biochemical, Zea mays; conditions: other: PEP varied; pH 7.0
Procedure: as §1

[6] = substrate: C=C(OP(=O)(O)O)C(=O)O; experiment: Substrate saturation kinetic analysis with glyphosate, H6-R61Y; assay type: biochemical, Zea mays; conditions: other: substrate saturation
maize EPSPS = experiment: EPSPS reaction rates at 200 uM PEP and S3P, and at 30 uM substrates with 1 mM glyphosate; assay type: biochemical, Zea mays; conditions: Zea ma
Procedure: as §1

[7] = system: Glycine max (93Y21) hairy root; experiment: Hairy root growth from transformed soybean cotyledons with or without 25 uM glyphosate; assay type: cell-based; conditions: constructs containing the UBQ10 promoter

Bacterial EPSPS (CP4) (Agrobacterium sp. CP4)
Km (C=C(OP(=O)(O)O)C(=O)O): 15.8 µM | kcat (C=C(OP(=O)(O)O)C(=O)O): 20.32 s⁻¹

B1: Zea mays EPSPS variant V-G at positions 103-107 (Zea mays; P106G/T102V) (protein)
chain: MAGAEEIVLQPIKEISGTVKLPGSKSLSNRILLLAALSEGTTVVDNLLNSEDVHYMLGALRTLGLSVEADKAAKRAVVVGCGGKFPVEDAKEEVQLFLGNAGVAMRGLTAAVTAAGGNATYVLDGVPRMRERPIGDLVVGLKQLGADVDCFLGTDCPPVRVNGIGGLPGGKVKLSGSISSQYLSALLMAAPLALGDVEIEIIDKLISIPYVEMTLRLMERFGVKAEHSDSWDRFYIKGGQKYKSPKNAYVEGDASSASYFLAGAAITGGTVTVEGCGTTSLQGDVKFAEVLEMMGAKVTWTETSVTVTGPPREPFGRKHLKAIDVNMNKMPDVAMTLAVVALFADGPTAIRDVASWRVKETERMVAIRTELTKLGASVEEGPDYCIITPPEKLNVTAIDTYDDHRMAMAFSLAACAEVPVTIRDPGCTRKTFPDYFDVLSTFVKN
Km [1]: 133 µM

B2: Zea mays EPSPS variant G-W at positions 103-107 (EPSPS-TGPW; T103G P107W) (Zea mays; P106W/T102G) (protein)
chain: B1 chain with V103G, G107W
Km [2]: 82.2 µM

B3: Zea mays EPSPS variant L-T at positions 103-107 (Zea mays; P106T/T102L) (protein)
chain: B1 chain with V103L, G107T
Km [3]: 45.8 µM

B4: Zea mays EPSPS variant L-A at positions 103-107 (Zea mays; P106A/T102L) (protein)
chain: B1 chain with V103L, G107A
Km [4]: 50.6 µM

B5: Zea mays EPSPS variant S-N at positions 103-107 (Zea mays; P106N/T102S) (protein)
chain: B1 chain with V103S, G107N
Km [5]: 38.1 µM

B6: Zea mays EPSPS variant Zm-H6 (868-H6) with R61Y (H6-R61Y) (Zea mays; A1R/A3W/A415G/A71Q/D401G/E301S/E390G/G101A/I207L/K83R/L97C/R60Y/T278A/T360S/T440Q/V437R) (protein)
chain: MRGWEEIVLQPIKEISGTVKLPGSKSLSNRILLLAALSEGTTVVDNLLNSEDVHYMLGALYTLGLSVEADKQAKRAVVVGCGGRFPVEDAKEEVQLFCGNAATAMRPLTAAVTAAGGNATYVLDGVPRMRERPIGDLVVGLKQLGADVDCFLGTDCPPVRVNGIGGLPGGKVKLSGSISSQYLSALLMAAPLALGDVEIEIIDKLISLPYVEMTLRLMERFGVKAEHSDSWDRFYIKGGQKYKSPKNAYVEGDASSASYFLAGAAITGGTVTVEGCGTASLQGDVKFAEVLEMMGAKVTWTSTSVTVTGPPREPFGRKHLKAIDVNMNKMPDVAMTLAVVALFADGPTAIRDVASWRVKESERMVAIRTELTKLGASVEEGPDYCIITPPGKLNVTAIDTYGDHRMAMAFSLAACGEVPVTIRDPGCTRKTFPDYFDRLSQFVKN
notes: 868-H6 plus R61Y; E. coli BL21(DE3), Ni-NTA purified
Km [6]: 23.6 µM | kcat [6]: 2.08 s⁻¹

B7: 123-C1: maize EPSPS with A2R, A4W, K84R, L98C, G102A, I208L, K243E, E391P, D402G (protein)
chain: B6 chain with Y61R, Q72A, K243E, A279T, S302E, S361T, G391P, G416A, R438V, Q441T
modifications: maize clone 123-C1
notes: maize EPSPS with A2R, A4W, K84R, L98C, G102A, I208L, K243E, E391P, D402G
Reaction rate, 200 uM, no glyph (maize EPSPS; PEP and S3P both at 200 uM, no glyphosate): 516 | Reaction rate, 30 uM, 1 mM glyph (maize EPSPS; substrates at 30 uM, glyphosate at 1 mM): 94.5 | hairy root growth in the presence of 25 uM glyphosate [7]: generated hairy roots
